Test results as given in PMC7660256.

Target: T1, PdhR (Escherichia coli K-12 W3110) (UniProt P0ACL9)
T1 sequence: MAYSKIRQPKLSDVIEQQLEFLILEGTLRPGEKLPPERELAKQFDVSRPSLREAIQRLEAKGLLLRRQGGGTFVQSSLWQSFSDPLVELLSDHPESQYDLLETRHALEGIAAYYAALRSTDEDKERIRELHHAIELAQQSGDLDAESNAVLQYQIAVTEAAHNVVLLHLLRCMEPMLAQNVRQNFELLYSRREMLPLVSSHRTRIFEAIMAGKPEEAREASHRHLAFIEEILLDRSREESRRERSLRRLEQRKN
Experiment: EMSA
Settings: Gel shift buffer (composition not given), 37 °C, 30 min; 0.2 pmol probe, 0-10 pmol PdhR; GelRed stain. gSELEX: 10 mM Tris-HCl pH 7.8 (4 °C), 3 mM Mg acetate …

“CTCTATATCACTCTCACAAATTCGCTCAAATAATAAACAATAAACTCTGTTTTTTGATCTCACCCGGTAAAGTCGCCTATCTTTTCAGCAACAAAACTTGATTAACATCAATTTTGGTATGACCAATGCACCATTCATGTTATTCTCAATAGCGAAGAACATTTTCATTGCTGTAACCTGTTGTTAATTAAGAGCTATGTTAATAACCATTAATTAACAATTGGTTAATAAATTTAAGGGGGTCACG (double strand) [ndh probe]” was tested, and the binding was “binds”.
